According to patent US20140093514A1 (UNIVERSITY OF ZURICH, published 2014):

T1: MAGEA3 peptide No 8
T1 construct: member of the group m18; also called 20mer peptide, amino acids 71-90 of MAGEA3
T1 peptide: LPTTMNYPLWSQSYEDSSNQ

T2: MAGEA3 peptide No 7
T2 construct: member of the group m18; also called 20mer peptide, amino acids 61-80 of MAGEA3
T2 peptide: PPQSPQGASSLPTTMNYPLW

T3: MAGEA3 peptide No 24
T3 construct: member of the group m18; also called 20mer peptide, amino acids 231-250 of MAGEA3
T3 peptide: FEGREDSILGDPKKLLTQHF

T4: recombinant MAGEA4 (UniProt P43358 1-317, limits assumed)
T4 construct: also called CT1.4
T4 sequence (looked up): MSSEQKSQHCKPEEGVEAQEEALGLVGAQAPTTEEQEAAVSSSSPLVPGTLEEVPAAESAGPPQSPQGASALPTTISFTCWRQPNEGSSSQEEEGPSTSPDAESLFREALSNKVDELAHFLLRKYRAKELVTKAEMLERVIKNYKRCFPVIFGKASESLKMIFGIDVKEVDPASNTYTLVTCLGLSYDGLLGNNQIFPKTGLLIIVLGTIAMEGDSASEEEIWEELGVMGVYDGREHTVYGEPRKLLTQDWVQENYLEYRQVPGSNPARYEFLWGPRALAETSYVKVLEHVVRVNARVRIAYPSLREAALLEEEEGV

T5: recombinant MAGEA1 (UniProt P43355 1-309, limits assumed)
T5 construct: also called CT1.1
T5 sequence (looked up): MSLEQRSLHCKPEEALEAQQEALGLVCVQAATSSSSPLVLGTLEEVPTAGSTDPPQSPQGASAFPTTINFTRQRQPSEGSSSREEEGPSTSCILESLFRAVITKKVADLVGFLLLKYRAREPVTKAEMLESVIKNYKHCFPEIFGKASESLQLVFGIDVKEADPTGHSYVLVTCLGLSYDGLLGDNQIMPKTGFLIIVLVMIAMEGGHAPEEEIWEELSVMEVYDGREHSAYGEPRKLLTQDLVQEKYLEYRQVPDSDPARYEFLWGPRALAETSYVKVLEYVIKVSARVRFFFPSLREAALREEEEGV

T6: MAGEA3 peptide No 5
T6 construct: member of the group m18; also called 20mer peptide, amino acids 41-60 of MAGEA3
T6 peptide: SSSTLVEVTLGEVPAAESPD

T7: MAGEA3 peptide No 10
T7 construct: member of the group m18; also called 20mer peptide, amino acids 91-110 of MAGEA3
T7 peptide: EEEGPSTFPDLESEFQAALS


Tests used:
[1] = molecular target: T8, recombinant MAGEA3 protein (human, UniProt P43357 1-314); assay: ELISA, recombinant MAGEA3 coated to plastic, serial dilutions of antibody, OD 450 nm
T8 construct: In Experiment 4C MAGEA3 was also expressed in transiently transfected HEK293T cells (fixed and permeabilized); also called His-tagged MAGEA3; CT1.3
T8 sequence (P43357 whole entry): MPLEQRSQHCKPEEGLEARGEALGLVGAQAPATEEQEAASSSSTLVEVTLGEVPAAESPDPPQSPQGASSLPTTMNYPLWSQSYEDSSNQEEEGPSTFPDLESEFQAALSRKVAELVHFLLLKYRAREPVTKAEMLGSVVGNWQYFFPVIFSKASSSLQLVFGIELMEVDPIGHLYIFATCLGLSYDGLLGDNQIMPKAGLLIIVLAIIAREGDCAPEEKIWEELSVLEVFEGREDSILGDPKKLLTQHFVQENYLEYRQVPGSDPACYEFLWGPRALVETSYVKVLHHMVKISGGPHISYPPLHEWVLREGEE
Experimental: FIG. 4 EC50 determination of recombinant human monoclonal antibodies to MAGEA3. MAGEA3-ELISA was carried out using recombinant MAGEA3 coated to plastic and serial dilutions of the human monoclonal antibodies 21B4, 54B4, 94G11, 9A5, 31H10, 43B10, 2G4, 20C10, 26C9 and 4D6 (A-J). EC50 values are indicated in each figure.
The EC₅₀, the concentration at which half-maximal binding of the antibody to its antigen is observed was determined in MAGEA3 ELISA using serial dilutions of the human monoclonal antibodies 21B4, 54B4, 94G11, 9A5, 31H10, 43B10, 2G4, 20C10, 26C9 and 4D6. EC50 values were determined mathematically by derivation of the best-fit line using GraphPad software.

MAGEA3 peptide No 8 = molecular target: T1, MAGEA3 peptide No 8; assay: ELISA on plates coated with overlapping 20mer MAGEA3 peptides; antibody at 1 µg/ml; HRP goat anti-human IgG Fc-gamma
Experimental: (§1) 20mer peptides spanning the entire MAGEA3 protein with 10 aa overlaps shared by each adjacent peptide (Peptides&Elephants, Nuthetal, Germany) were used to coat Maxisorp ELISA plates (Nunc, Rochester, N.Y.). As control a 20mer peptide representing amino acids 40-21 from the NY-ESO-1 protein was used (rev). The numbering of amino acids of MAGEA3 is based on SEQ ID No.: 101.
(§2) Human recombinant antibody was used at a concentration of 1 μg/ml with the exception of antibody 9A5 which was used at […]. Bound human antibody was detected using horseradish peroxidase-conjugated goat anti-human IgG Fc-gamma specific antibodies (Jackson ImmunoResearch, Europe Ltd., Cambridgeshire, UK).

MAGEA3 peptide No 7 = molecular target: T2, MAGEA3 peptide No 7; assay: as above
Experimental: as §1, §2

MAGEA3 peptide No 24 = molecular target: T3, MAGEA3 peptide No 24; assay: as above
Experimental: as §1, §2

recombinant MAGEA10 = molecular target: T9, recombinant MAGEA10 (UniProt P43363 1-369, limits assumed); assay: ELISA on coated recombinant MAGEA proteins, serial dilutions of antibody (concentrations not printed on the sheet)
T9 construct: also called CT1.10
T9 sequence (P43363 whole entry): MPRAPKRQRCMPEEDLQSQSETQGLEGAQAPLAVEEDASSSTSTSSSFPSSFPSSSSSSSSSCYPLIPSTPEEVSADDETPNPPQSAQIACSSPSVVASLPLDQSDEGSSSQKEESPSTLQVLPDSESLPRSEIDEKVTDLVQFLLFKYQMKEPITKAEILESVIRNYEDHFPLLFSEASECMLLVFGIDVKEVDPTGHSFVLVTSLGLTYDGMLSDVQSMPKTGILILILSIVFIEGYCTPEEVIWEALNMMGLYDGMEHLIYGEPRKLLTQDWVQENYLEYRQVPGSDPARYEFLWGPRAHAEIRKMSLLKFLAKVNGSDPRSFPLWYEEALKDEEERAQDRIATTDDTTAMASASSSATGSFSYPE
Experimental: (§3) Recombinantly expressed MAGEA3, MAGEA1, MAGEA4, MAGEA10 were coated on ELISA plates and binding of MAGEA3 antibodies 21B4, 94G11, 2G4, 9A5 and 54B4 to these proteins was tested. The results are depicted in FIG. 3B).

recombinant MAGEA4 [2] = molecular target: T4, recombinant MAGEA4; assay: as above
Experimental: as §3

recombinant MAGEA1 = molecular target: T5, recombinant MAGEA1; assay: as above
Experimental: as §3

MAGEA6 = molecular target: T10, MAGEA6 (UniProt P43360 1-314, limits assumed); assay: flow cytometry on fixed, permeabilized HEK293T cells transiently transfected with MAGEA6; PE-labeled anti-human antibody
T10 construct: whole, on cells; Intracellular antigen: the transfected cells were fixed and permeabilized before staining; also called CT1.6
T10 sequence (P43360 whole entry): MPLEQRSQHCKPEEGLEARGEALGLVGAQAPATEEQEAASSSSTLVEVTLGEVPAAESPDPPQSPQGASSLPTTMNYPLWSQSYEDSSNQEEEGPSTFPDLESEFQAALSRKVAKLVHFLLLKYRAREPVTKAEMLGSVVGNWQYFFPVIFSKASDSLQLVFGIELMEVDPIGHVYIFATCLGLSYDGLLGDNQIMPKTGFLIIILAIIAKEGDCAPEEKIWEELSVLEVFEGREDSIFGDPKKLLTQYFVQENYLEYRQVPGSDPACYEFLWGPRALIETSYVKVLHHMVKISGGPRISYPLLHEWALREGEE
Experimental: HEK293T cells transiently transfected with MAGEA3 or MAGE A6 were fixed and permeabilized and incubated with human-derived antibodies. Binding of human-derived antibodies to the cells was detected by flow cytometry using PE-labeled anti-human antibodies. […] Filled histograms show binding of 21B4, 31H10, 94G11 and 54B4 to transiently transfected HEK 293 cells. Only a proportion of the cells was transfected resulting in a population expressing the transgene and in a population not expressing the transgene. […] The results are depicted in FIG. 3C).

MAGEA3 peptide No 5 = molecular target: T6, MAGEA3 peptide No 5; assay: ELISA on plates coated with overlapping 20mer MAGEA3 peptides; antibody 9A5 at '4 mg/ml' as printed in paragraph 376; HRP goat anti-human IgG Fc-gamma
Experimental: as §1, §2

recombinant MAGEA4 [3] = molecular target: T4, recombinant MAGEA4; assay: Western blot; recombinant MAGEA4 in lane B, human antibody as probe
Experimental: Membranes were incubated with human antibodies 21B4, 54B4, 94G11, 9A5, 31H10, 43B10, 2G4 or 20C10. Binding of human antibodies to proteins on the membrane was evaluated. The results are depicted in FIG. 3A).

MAGEA3 peptide No 10 = molecular target: T7, MAGEA3 peptide No 10; assay: ELISA on plates coated with overlapping 20mer MAGEA3 peptides; antibody at 1 µg/ml; HRP goat anti-human IgG Fc-gamma
Experimental: as §1, §2

Row | EC50 [1] [pM] | binding result (MAGEA3 peptide No 8) | binding result (MAGEA3 peptide No 7) | binding result (MAGEA3 peptide No 24) | binding result (recombinant MAGEA10) | binding result (recombinant MAGEA4 [2]) | binding result (recombinant MAGEA1) | binding result (MAGEA6) | binding result (MAGEA3 peptide No 5) | binding result (recombinant MAGEA4 [3]) | binding result (MAGEA3 peptide No 10) | Binder
1 | 31.3 | binds | binds | binds | no binding | no binding | no binding | binds | – | – | – | 21B4 (antibody, V domains shown, Patient-derived; also called human-derived recombinant antibody 21B4; human monoclonal antibody 21B4) VH: QVQLVESGGGVVQPGRSLRLSCTASGFRFRSHGMHWVRQAPGKGLEWVAVISYDGNNKLYADSVKGRITISRDNSKNTLFLQMNNVRAEDTAVYYCASPYTSDWQYFQYWGQGTLVIVSS VL: EIVMTQSPATLSVSPGERATFSCRASQNISTTLAWYQQKPGQAPRLLIYDTSTRATGIPARFSGSGSGTEFTLTISSLQSEDLAVYYCQQSNSWPLTFGGGTKVEIK
2 | 259 | – | – | – | no binding | – | no binding | – | binds | no binding | – | 9A5 (antibody, V domains shown) VH: EVQLVASGGVMVKPGGSLRLSCAASGFSFKNAWMTWVRQAPGMGLEWVGRITSKTDGETTDYAAPVKGRFTISRDDSKNILYLQMNSLKTEDTAVYYCATRTTVCYVCWGQGTLVTVSS VL: DIVLTQSPDSLAVSQGERATINCKSSQSLLYSSNNKNYLAWFQQKPGQPPKLLIYWASTRESGVPDRFSGSGSGTDFTLTISSLQAEDVAVYYCQQYYTIGWTFGPGTKVEIK
3 | 19.2 | – | – | – | – | – | – | binds | – | no binding | binds | 31H10 (antibody, V domains shown) VH: QVQLVESGGGVVQPGGSLRLSCAASDFTFSDHGMHWVRQAPGKGLQWVSFISHHGTNKYYIDSVKGRFIISRDNSKNTLYLQMNSLRTEDTAVYYCATVIGYFFGYGFDVWGQGTTVIVSS VL: EIVMTQSPATLSVSPGEEINLACRASHSISGNLAWYQQKPGQGPRLLIYSASTRATGISARFSGSGSGTEFTLTISSLESEDFAVYFCQQYNNWPLTFGGGTKVEIK
